Measurements from publication PMC6426602, “Structure of Vibrio FliL, a New Stomatin-like Protein That Assists the Bacterial Flagellar Motor Function” (mBio, 2019).

B1: FliLC, trypsin-resistant core of the periplasmic region of polar FliL (residues 58 to 167) (domain or fragment, Vibrio alginolyticus, UniProt A0A7H8DP68 58-167, looked up)
chain: ASDAAPIAYVNLPQAFVFNVTGDSRDRLVQIKAQLMVRGAENEELARYHSPLIESSMLSTFASATVDQLRSPTGRVELRDRASEDIKAALNAAVGKPVIEKVLFTDFVIQ
notes: polar flagellar FliL of Vibrio alginolyticus, fragment of residues 58 to 167 left after trypsin digestion of FliLPeri; also called FliL_(58-167)
B2: periplasmic region of polar FliL (FliLPeri) of Vibrio alginolyticus (domain or fragment, UniProt A0A7H8DP68 41-167, looked up)
chain: GSDEPAQAESSQQAQVKASDAAPIAYVNLPQAFVFNVTGDSRDRLVQIKAQLMVRGAENEELARYHSPLIESSMLSTFASATVDQLRSPTGRVELRDRASEDIKAALNAAVGKPVIEKVLFTDFVIQ
notes: polar flagellar FliL of Vibrio alginolyticus, periplasmic region, residues 41 to 167; Residues 41-57 are invisible in the map; also called His6-FliL_(Peri); copies: 10

What was measured:
[1] = target: the molecule itself; test: crystal structure; FliLC crystal, space group P6(1), 2.1 Å, two molecules in the asymmetric unit; sitting drop at 20°C, protein 10 mg/ml in 20 mM Tris-HCl pH 8.0, 150 mM NaCl; reservoir 0.1 M sodium acetate pH 4.4, 22.5% PEG 4000, 0.2 M ammonium sulfate
[2] = target: the molecule itself; test: crystal structure; FliLPeri crystal, space group P4(2)2(1)2, 3.4 Å, 20 molecules in the asymmetric unit; sitting drop at 20°C, protein 70 mg/ml in 20 mM Tris-HCl pH 8.0, 150 mM NaCl; reservoir 0.1 M sodium acetate pH 6.0, 25% PEG 200, 0.15 M CaCl2, 1.4% EtOH

Protein	binding result [1]	stoichiometry N [2] [subunits in a ring]
B1	binds	–
B2	–	10
